Source: IntAct's records for PubMed 15774581

B1: Krueppel-like factor 11 (Homo sapiens), O14901 (parent)
chain: MHTPDFAGPDDARAVDIMDICESILERKRHDSERSTCSILEQTDMEAVEALVCMSSWGQRSQKGDLLRIRPLTPVSDSGDVTTTVHMDAATPELPKDFHSLSTLCITPPQSPDLVEPSTRTPVSPQVTDSKACTATDVLQSSAVVARALSGGAERGLLGLEPVPSSPCRAKGTSVIRHTGESPAACFPTIQTPDCRLSDSREGEEQLLGHFETLQDTHLTDSLLSTNLVSCQPCLHKSGGLLLTDKGQQAGWPGAVQTCSPKNYENDLPRKTTPLISVSVPAPPVLCQMIPVTGQSSMLPAFLKPPPQLSVGTVRPILAQAAPAPQPVFVGPAVPQGAVMLVLPQGALPPPAPCAANVMAAGNTKLLPLAPAPVFITSSQNCVPQVDFSRRRNYVCSFPGCRKTYFKSSHLKAHLRTHTGEKPFNCSWDGCDKKFARSDELSRHRRTHTGEKKFVCPVCDRRFMRSDHLTKHARRHMTTKKIPGWQAEVGKLNRIASAESPGSPLVSMPASA
partner: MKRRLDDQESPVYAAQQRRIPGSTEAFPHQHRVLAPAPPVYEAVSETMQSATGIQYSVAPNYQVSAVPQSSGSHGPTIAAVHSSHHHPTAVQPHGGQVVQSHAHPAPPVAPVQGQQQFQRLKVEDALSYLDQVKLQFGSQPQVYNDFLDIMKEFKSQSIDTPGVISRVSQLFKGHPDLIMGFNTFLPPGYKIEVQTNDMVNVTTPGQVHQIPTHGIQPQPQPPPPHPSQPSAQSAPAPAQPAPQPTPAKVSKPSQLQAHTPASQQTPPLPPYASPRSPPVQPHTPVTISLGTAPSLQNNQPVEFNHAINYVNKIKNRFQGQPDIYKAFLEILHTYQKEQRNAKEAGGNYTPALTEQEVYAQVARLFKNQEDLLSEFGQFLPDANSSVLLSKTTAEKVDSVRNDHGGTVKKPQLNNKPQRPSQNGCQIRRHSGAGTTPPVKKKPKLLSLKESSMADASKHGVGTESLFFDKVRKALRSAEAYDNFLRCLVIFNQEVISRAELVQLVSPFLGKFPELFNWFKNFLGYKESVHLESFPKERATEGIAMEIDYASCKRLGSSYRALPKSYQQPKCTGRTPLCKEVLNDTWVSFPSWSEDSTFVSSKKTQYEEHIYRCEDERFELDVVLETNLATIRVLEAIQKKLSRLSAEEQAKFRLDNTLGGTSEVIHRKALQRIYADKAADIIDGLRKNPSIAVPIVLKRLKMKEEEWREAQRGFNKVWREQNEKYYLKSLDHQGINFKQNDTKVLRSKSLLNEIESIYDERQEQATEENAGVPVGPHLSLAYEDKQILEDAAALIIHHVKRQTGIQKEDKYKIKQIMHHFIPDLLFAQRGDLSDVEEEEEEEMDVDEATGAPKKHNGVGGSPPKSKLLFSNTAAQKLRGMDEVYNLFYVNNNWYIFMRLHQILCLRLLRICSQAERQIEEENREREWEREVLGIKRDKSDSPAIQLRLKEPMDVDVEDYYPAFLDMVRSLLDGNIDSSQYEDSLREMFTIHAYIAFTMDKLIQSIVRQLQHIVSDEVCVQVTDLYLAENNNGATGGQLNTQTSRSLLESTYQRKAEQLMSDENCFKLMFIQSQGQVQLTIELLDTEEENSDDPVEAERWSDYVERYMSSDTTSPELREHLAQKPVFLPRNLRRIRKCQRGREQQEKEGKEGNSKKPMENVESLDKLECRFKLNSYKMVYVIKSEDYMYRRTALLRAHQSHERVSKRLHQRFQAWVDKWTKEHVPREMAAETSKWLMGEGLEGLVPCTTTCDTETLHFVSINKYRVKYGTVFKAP

Variants of: B1
Conditions: with Sin3a

Variant	effect of a mutation on the interaction
Q62R	increasing interaction
